US12565517B2, “Cyclic peptide having CTLA-4 inhibitory activity and use thereof” (GeneFrontier Corporation, priority 2019, dated 2026)
Bridges are numbered along the chain shown (N, C = ends). Where no end group is shown, it is not given here.

Columns and labels:
CTLA-4 [1] = biological target: T1, CTLA-4 (Homo sapiens, UniProt P16410); test: Evaluation of binding after Affinity Maturation selection by ELISA (S/N ratio, Table 5); conditions: for ELISA MBP-fusion Orencia (absorbance at 450 nm): MBP-fused cyclic peptide, Orencia wells; for ELISA MBP-fusion S/N(SA): ratio of Orencia signal to SA signal, binding = S/N not less than 2
T1 construct: IgG1 Fc (own knowledge: Orencia = abatacept, CTLA4-Ig)
Experimental: The basic operation of ribosome display was performed in the same manner as described above. Detailed experimental conditions for Affinity Maturation are indicated below. 2 μL of Nanolink streptavidin magnetic beads (SoluLink) were used as magnetic beads to immobilize the antigen, and 1 mL of CTLA-4 protein solution (1 μM) was used as a wash solution. The amount of biotinylated CTLA-4 immobilized on the magnetic beads was 10 pmol in the 1st round, 2 pmol in the 2nd round, and 1 pmol in the 3rd round, respectively. The washing period was 2 hours for the 1st round, 19 hours for the 2nd round, and 67 hours for the 3rd round. The number of wash cycle was one time (2 hours) in the 1st round, two times (about every 10 hours) in the […], and six times (about every 10 hours) in the 3rd round. After each round of RT-PCR, Error-Prone PCR was performed in the same manner as described above.
(§1) After each round of Affinity Maturation, the cyclic peptide genes were recovered and subcloned into pET-Mal vector (FIG. 2) in the same manner as described above to perform base sequence analysis. For the 94 single colonies analyzed for sequence, E. coli transformants were inoculated into 100 μL of 2×YT medium containing ampicillin (final concentration 50 μg/mL), incubated at 37° C. for 3-5 hours (OD600=0.5-0.8), then added with IPTG (final concentration 0.5 mM) and incubated at 25° C. overnight. 10 μL of E. coli cultured medium was added with 90 μL of PBS and 40 μL of lysis reagent (20 μL BugBuster Protein Extraction Reagent (Novagen), 20 μL Lysozyme solution 2.5 mg/mL) to lyse E. coli cells for 1 hour at room temperature. The cell lysate was added with 40 μL of 12.5% skim milk solution (TBST) and blocked for 1 hour at room temperature. In parallel, antigen protein was immobilized overnight at 4° C. in 384-well plates at 100 ng/20 μL per well, and each well was washed twice with 100 μL/well of TBST, added with 100 μL/well of 5% skim milk solution (TBST) for blocking for 1 hour at room temperature, and washed twice with 100 μL/well of TBST to obtain antigen-immobilized plates. 20 μL/well of blocking-treated E. coli extract was added to the antigen-immobilized plates and gently stirred at room temperature using a plate mixer. After 1 hour, the plates were washed 5 times with 100 μL/well of TBST, 20 μL/well of anti-FLAG M2-HRP conjugate (1:2000 dilution, Sigma) was added and gently stirred on a plate mixer for 1 hour at room temperature. The plates were washed 5 times with 100 μL/well of TBST, and binding of cyclic peptides to the antigen was detected by 20 μL/well of chromogenic substrate (0.4 mg/mL 3,3′,5,5′-Tetramethyl-benzidine, 0.01% hydrogen peroxide). After 15 minutes of reaction at room temperature, the reaction was stopped with 20 μL/well of 2N HCl, and absorbance at 450 nm was measured using a plate reader (infinite F200: TECAN) (Table 5).
T1 sequence (P16410 with tags, fused parts or gaps limits assumed): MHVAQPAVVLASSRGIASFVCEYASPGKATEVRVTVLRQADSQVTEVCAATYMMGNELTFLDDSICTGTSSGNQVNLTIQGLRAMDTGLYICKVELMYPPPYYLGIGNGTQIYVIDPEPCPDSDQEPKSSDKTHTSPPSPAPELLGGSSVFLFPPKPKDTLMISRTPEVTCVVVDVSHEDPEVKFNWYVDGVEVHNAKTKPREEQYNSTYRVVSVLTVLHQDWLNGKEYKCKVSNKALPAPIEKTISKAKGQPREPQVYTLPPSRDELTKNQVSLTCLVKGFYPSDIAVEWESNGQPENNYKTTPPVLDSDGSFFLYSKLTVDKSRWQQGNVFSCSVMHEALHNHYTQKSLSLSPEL

CTLA-4 [2] = biological target: T2, CTLA-4 (Homo sapiens, UniProt P16410); test: Affinity measurement of CTLA-4 binding clones after Affinity Maturation (EC50 by ELISA, Table 6); conditions: for CTLA-4 affinity improved over the original clone: EC50 by ELISA, MBP fusion cyclic peptides; for EC50: N-terminal MBP fusion protein of the CTLA-4 binding clone, EC50 calculated from ELISA binding curve
T2 sequence (P16410 36-223): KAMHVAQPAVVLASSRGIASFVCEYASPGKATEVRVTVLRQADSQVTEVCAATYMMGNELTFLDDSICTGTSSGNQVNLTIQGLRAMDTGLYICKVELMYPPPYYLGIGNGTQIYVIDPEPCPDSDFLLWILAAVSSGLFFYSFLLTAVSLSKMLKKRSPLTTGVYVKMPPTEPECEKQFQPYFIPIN
Experimental: For each of the CTLA-4 binding clones obtained by Affinity Maturation, purified N-terminal MBP fusion protein solution (400 μg/mL) was prepared and samples serially 2-fold diluted with PBS were prepared. CTLA-4 was immobilized overnight at 4° C. in 384-well plates at 100 ng/20 μL per well, and each well was washed twice with 100 μL/well of TBST, added with 100 μL/well of 5% skim milk solution (TBST) for blocking for 1 hour at room temperature, and washed twice with 100 μL/well of TBST to obtain antigen-immobilized plates. 20 μL/well of serially-diluted N-terminal MBP fusion protein solution was added to the antigen-immobilized plates and gently stirred at room temperature using a plate mixer. After 1 hour, the plates were washed 5 times with 100 μL/well of TBST, 20 μL/well of anti-FLAG M2-HRP conjugate (1:2000 dilution, Sigma) was added and gently stirred on a plate mixer for 1 hour at room temperature. Further, the plates were washed 5 times with 100 μL/well of TBST, and binding of N-terminal MBP fusion proteins to the antigen was detected by 20 μL/well of chromogenic substrate (0.4 mg/mL 3,3′,5,5′-Tetramethyl-benzidine, 0.01% hydrogen peroxide). After 15 minutes of reaction at room temperature, the reaction was stopped with 20 μL/well of 2N HCl, and absorbance at 450 nm was measured using a plate reader (infinite F200: TECAN). The graph was plotted with the vertical axis as the absorbance of ELISA and the horizontal axis as the concentration of N-terminal MBP fusion protein of the CTLA4-binding clones (FIG. 5), and the EC50 was calculated from the obtained binding curve (Table 6).

SA = SA (Streptomyces avidinii, UniProt P22629); test: ELISA background signal of MBP-fused cyclic peptides on SA wells (Table 5); format: binding; conditions: MBP-fused cyclic peptide
Sequence of SA (P22629 25-183): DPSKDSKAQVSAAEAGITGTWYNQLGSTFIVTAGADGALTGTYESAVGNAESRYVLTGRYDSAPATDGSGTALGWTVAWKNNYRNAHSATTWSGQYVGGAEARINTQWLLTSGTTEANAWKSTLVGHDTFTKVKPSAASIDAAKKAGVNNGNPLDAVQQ
Experimental: as §1
An Error-Prone Library was prepared based on H12SSI-Ctla4-3-02, and Affinity Maturation selection experiments were performed. […]

CTLA-4 [3] = biological target: T2, CTLA-4; test: Alanine scanning of clone #10, binding evaluated by ELISA; conditions: mutants of clone #10
Experimental: After each round of Affinity Maturation, the cyclic peptide genes were recovered and subcloned into pET-Mal vector (FIG. 2) in the same manner as described above to perform base sequence analysis. For the 94 single colonies analyzed for sequence, E. coli transformants were inoculated into 100 μL of 2×YT medium containing ampicillin (final concentration 50 μg/mL), incubated at 37° C. for 3-5 hours (OD600=0.5-0.8), then added with IPTG (final concentration 0.5 mM) and incubated at 25° C. overnight. […] The plates were washed 5 times with 100 μL/well of TBST, and binding of cyclic peptides to the antigen was detected by 20 μL/well of chromogenic substrate (0.4 mg/mL 3,3′,5,5′-Tetramethyl-benzidine, 0.01% hydrogen peroxide). After 15 minutes of reaction at room temperature, the reaction was stopped with 20 μL/well of 2N HCl, and absorbance at 450 nm was measured using a plate reader (infinite F200: TECAN) (Table 5).
Using the CTLA-4 binding clone #10 ([…]) (SEQ ID NO: 27), which had high affinity, as the original clone, a series of oligo DNAs encoding mutants in which any one amino acid residue except cysteine was sequentially replaced with alanine were synthesized and each oligo DNA was subcloned into pET-Mal vector (FIG. 2), and the binding activity of the alanine substitution mutants to CTLA-4 was evaluated by ELISA as described above.

CTLA-4 [4] = biological target: T2, CTLA-4; test: Affinity measurement of synthetic biotinylated peptides by BLItz system (peptide on SA sensor chip); format: binding; conditions: synthetic Biotin-PEG4-Lys peptide immobilized, BLItz
Experimental: Affinity for CTLA-4 was measured using the BLItz system (forte Bio). All operations were performed according to the instruction manual of the BLItz system. The biotinylated peptides were immobilized on the SA sensor chip via streptavidin.

[5] = biological target: T3, binding of CTLA-4 to CD80 (Homo sapiens, UniProt P16410); test: CTLA4:B7-1[Biotinylated] Inhibitor Screening Assay Kit (IC50 measurement); format: biochemical
T3 construct: purchased BPS Biosciences
T3 sequence (P16410 37-162 limits assumed): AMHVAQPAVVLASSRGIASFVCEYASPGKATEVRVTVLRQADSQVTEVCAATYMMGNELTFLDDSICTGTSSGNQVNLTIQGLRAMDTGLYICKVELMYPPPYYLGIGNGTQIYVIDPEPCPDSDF
Source text: IC50 can be determined by using, for example, competitive ELISA, surface plasmon resonance (BIAcore (trademark)) analysis or the like. IC50 value for the cyclic peptide of the present invention with respect to its inhibition of binding between human CTLA-4 and human CD80 is preferably measured by CTLA4:B7-1 [Biotinylated] Inhibitor Screening Assay Kit (BPS Bioscience) according to the Example below.
Among the clones obtained in the Affinity Maturation selection experiment, clone #19 ([…]) (SEQ ID NO: 22), which has high affinity to CTLA-4 in EC50 measurement, was measured for its activity to inhibit binding of CTLA-4 to CD80. The measurement of inhibitory activity was performed using the CTLA4:B7-1[Biotinylated] Inhibitor Screening Assay Kit (BPS Biosciences). The experiment was performed according to the standard protocol attached to the kit.
In addition, peptides with glycine added to the N-terminus (Gly-clone #19: […] (SEQ ID NO: 26)/Gly-H12SSI-Ctla4-3-02: […] (SEQ ID NO: 25)) were chemically synthesized for the measurement of inhibitory activity. Inhibitory activity was measured using the CTLA4:B7-1 [Biotinylated] Inhibitor Screening Assay Kit (BPS Biosciences) as described above.

[6] = biological target: T4, CTLA-4 protein (Recombinant Human CTLA4-Fc chimera) (Homo sapiens, UniProt P16410); test: Affinity measurement of MBP fusion clone by BLItz system (biotinylated CTLA-4 on SA sensor chip); format: binding
T4 construct: purchased R&D systems
T4 sequence (P16410 with tags, fused parts or gaps limits assumed): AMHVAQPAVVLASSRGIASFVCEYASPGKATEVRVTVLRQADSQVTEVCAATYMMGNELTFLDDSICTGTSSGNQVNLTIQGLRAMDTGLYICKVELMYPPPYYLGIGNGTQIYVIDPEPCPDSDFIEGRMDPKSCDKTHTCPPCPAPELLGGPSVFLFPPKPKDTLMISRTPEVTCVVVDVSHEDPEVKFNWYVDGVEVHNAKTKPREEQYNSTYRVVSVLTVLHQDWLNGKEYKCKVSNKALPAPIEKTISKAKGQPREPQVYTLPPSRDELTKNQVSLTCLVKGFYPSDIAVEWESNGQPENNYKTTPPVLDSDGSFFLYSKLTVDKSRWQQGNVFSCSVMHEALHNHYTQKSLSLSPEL
Experimental: (§2) CTLA-4 protein (Recombinant Human CTLA4-Fc chimera: R&D systems) was biotinylated according to the standard protocol for EZ-Link NHS-PEO12-Biotin (PIERCE). Biotinylation of CTLA-4 protein was confirmed mobility shift of the band in SDS-PAGE. The concentration of biotinylated CTLA-4 protein was measured by using BCA Protein Assay Kit (PIERCE)
E. coli transformants were inoculated into 200 mL of 2×YT medium containing ampicillin (final concentration 50 μg/mL), incubated at 37° C. for 3-5 hours (OD600=0.5-0.8), and then added with IPTG (final concentration 0.5 mM) and incubated at 25° C. overnight. The grown E. coli cells were collected by centrifugation, resuspended in 60 mL of lysis buffer (20 mM Tris HCl pH 7.5, 500 mM NaCl), and disrupted by a sonicator (Bioruptor UCD-250). The disrupted cell suspension was centrifuged, the supernatant was collected, filtered through a 0.22 μm filter, and subjected to affinity purification by MBPTrap (GE Healthcare). The purified protein solution was subjected to a buffer exchange into PBS by a dialysis membrane. Purity was confirmed by SDS-PAGE and protein concentration was determined using the BCA Protein Assay Kit (PIERCE).
The affinity of the purified CTLA-4 binding clone (H12SSI-Ctla4-3-02) to CTLA-4 was measured using BLItz system (forte Bio). All operations were performed according to the instruction manual of the BLItz system. The biotinylated CTLA-4 protein was immobilized on the SA sensor chip via streptavidin.

[7] = biological target: T5, CTLA-4-Fc (Recombinant Human CTLA4-Fc chimera) versus Human Fc (Homo sapiens, UniProt P16410); test: Ribosome display pull down assay of enriched clones; format: binding; conditions: CTLA-4 Fc versus Human Fc
T5 construct: purchased R&D systems
Experimental: as §2
Dynabeads MyOne Streptavidin T1 magnetic beads (100 μL slurry, Invitrogen) pre-blocked overnight with 5% SuperBlock at 4° C. was trapped with MagneSphere Magnetic Separation Stand (Promega) and washed twice with 500 μL of wash buffer solution. 100 pmol of biotinylated antigen protein was added and immobilized on the magnetic beads at 4° C. After 60 min, the magnetic beads were trapped with MagneSphere Magnetic Separation Stand (Promega) and washed 3 times with 500 μL of wash buffer solution. The recovered magnetic beads were added with post-translation reaction solution containing ribosome display complexes (peptide-ribosome-mRNA complexes) and stirred with rotation at 4° C. for 1 hr. A supernatant was discarded by MagneSphere Magnetic Separation Stand (Promega), and the recover magnetic beads were added with 1 mL of wash buffer solution and stirred with rotation at 4° C. for 5 min. […] A part of purified mRNA was reacted with RNA-direct SYBR Green Realtime PCR Master Mix (TOYOBO) and quantified by using Light Cycler 480 (Roche).

Substance | ELISA MBP-fusion Orencia (absorbance at 450 nm) (CTLA-4 [1]) | ELISA MBP-fusion S/N(SA) (CTLA-4 [1]) | CTLA-4 affinity improved over the original clone (CTLA-4 [2]) | EC50 (CTLA-4 [2]) [nM] | ELISA MBP-fusion SA (absorbance at 450 nm) (SA) | binding activity of alanine substitution mutant to CTLA-4 (CTLA-4 [3]) | ka (CTLA-4 [4]) [M⁻¹ s⁻¹] | kd (CTLA-4 [4]) [s⁻¹] | Kd (CTLA-4 [4]; unit inferred) [nM] | IC50 ([5]; MBP fusion protein) [nM] | IC50 ([5]; synthesized peptide with N-terminal glycine) [nM] | Kd [6] [nM] | ka [6] [M⁻¹ s⁻¹] | kd [6] [s⁻¹] | binding specificity in ribosome display pull down assay [7]
CLHPFLPIVSHHFCGR (cysteine pairing not given here; also: MBP fusion) [#10] | 1.1444 | 18.5 | about 50 fold | 82 | 0.0617 |  |  |  |  |  |  |  |  |  | 
I7A mutant: alanine substitution mutant of clone #10 with isoleucine at position 7 replaced (CLHPFLPAVSHHFCGR; not fully specified (bridges); cysteine pairing not given here; also: MBP fusion) |  |  |  |  |  | weak binding activity |  |  |  |  |  |  |  |  | 
CMHPFLPIVSHHFCER [#19] | 1.0658 | 18.0 | about 50 fold | 75 | 0.0591 |  | 208000 | 0.0128 | 61.8 | 1360 | 11500 |  |  |  | 
CMHPFLLVVSHHFC (disulfide 1-14 (inferred); not fully specified (N-terminus)) [H12SSI-Ctla4-3-02] | 0.2278 | 4.3 |  |  | 0.0536 |  |  |  |  |  |  | 3880 | 3180 | 0.0123 | bound specifically to CTLA-4
